A word on the Ki: it is the equilibrium dissociation constant of an inhibitor or competing ligand from its target. The term stoichiometry N denotes the number of molecules, sites or subunits per partner or assembly.

Data on 1 substance can be found in doi:10.1101/636423.

The target in experiment [1] is whole intracellular region of rat PTPRZ (rat PTPRZ-ICR) (rat) (UniProt Q62656). Nature of the experiment: inhibition of PTPase catalytic activity.
Experiment [2] has the same target. Nature of the experiment: native MS.

Sequence of F2Pmp-GIT1_(550–556), non-hydrolyzable pTyr mimetic (F2Pmp)-containing substrate-mimetic inhibitor peptide (Q9Z272 whole entry, looked up, tested part not stated): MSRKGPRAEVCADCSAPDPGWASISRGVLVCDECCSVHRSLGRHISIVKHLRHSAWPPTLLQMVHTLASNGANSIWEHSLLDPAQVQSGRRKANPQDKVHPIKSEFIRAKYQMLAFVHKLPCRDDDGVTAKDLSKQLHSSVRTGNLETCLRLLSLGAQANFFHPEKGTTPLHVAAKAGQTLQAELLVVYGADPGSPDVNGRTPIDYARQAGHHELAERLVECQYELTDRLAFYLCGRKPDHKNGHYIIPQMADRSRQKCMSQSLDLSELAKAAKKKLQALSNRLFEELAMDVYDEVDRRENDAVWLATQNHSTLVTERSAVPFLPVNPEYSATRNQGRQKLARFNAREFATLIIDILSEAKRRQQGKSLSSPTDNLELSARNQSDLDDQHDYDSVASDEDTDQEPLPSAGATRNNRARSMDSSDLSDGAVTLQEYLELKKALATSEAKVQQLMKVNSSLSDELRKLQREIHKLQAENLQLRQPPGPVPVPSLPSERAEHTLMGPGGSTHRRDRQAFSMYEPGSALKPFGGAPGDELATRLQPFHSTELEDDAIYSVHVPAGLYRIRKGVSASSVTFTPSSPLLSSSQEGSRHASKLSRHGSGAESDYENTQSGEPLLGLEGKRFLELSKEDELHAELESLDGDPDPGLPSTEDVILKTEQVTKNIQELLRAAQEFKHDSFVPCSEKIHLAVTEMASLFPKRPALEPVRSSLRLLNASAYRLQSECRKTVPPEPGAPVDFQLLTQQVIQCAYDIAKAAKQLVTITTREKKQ
Sequence of whole intracellular region of rat PTPRZ (rat PTPRZ-ICR) (rat) (Q62656 1699-2316): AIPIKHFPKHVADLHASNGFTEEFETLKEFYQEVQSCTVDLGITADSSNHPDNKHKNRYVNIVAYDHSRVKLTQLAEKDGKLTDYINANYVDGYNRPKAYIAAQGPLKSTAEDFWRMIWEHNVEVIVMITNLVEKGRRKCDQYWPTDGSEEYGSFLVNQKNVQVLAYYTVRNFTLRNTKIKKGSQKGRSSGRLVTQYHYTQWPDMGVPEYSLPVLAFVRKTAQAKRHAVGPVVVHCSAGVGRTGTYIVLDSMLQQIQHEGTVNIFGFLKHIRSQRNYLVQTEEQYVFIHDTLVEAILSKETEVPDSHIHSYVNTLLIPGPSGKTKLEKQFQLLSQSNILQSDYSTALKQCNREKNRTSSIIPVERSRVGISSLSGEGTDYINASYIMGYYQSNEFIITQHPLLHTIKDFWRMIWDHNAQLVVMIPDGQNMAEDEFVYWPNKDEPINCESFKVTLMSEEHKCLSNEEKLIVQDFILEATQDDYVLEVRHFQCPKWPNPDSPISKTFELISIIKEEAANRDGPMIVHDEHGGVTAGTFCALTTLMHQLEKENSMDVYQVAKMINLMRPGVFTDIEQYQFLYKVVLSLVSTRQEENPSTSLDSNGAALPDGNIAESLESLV

In turn, “F2Pmp-GIT1_(550–556), non-hydrolyzable pTyr mimetic (F2Pmp)-containing substrate-mimetic inhibitor peptide (from UniProt Q9Z272 550-556)” registered a Ki in experiment [1] of 3.1 µM. In experiment [2], this substance returned a stoichiometry N of 1.
